Reference: article PMC10570377, “DARPins detect the formation of hetero-tetramers of p63 and p73 in epithelial tissues and in squamous cell carcinoma” (Cell Death & Disease, 2023)

B1: p73 oligomerization domain (OD), homo-tetramer (domain or fragment)
chain: DEDTYYLQVRGRENFEILMKLKESLELMELVPQPLVDSYRQQQQLLQR
notes: p73 oligomerization domain (OD), wild type; 15N-labelled on lysine for NMR; also called p73 OD; p73 homo-OD; source: E. coli, purified; not shown: His10, N-terminal, cleaved
B2: p73 oligomerization domain E363K (domain or fragment, UniProt O15350 351-398, looked up)
chain: DEDTYYLQVRGRKNFEILMKLKESLELMELVPQPLVDSYRQQQQLLQR
notes: p73 oligomerization domain (OD), amino acids 351-398, E363K; The p73 chain of m3; also called p73 (amino acids 351–398, E363K); p73 OD E363K; source: E. coli BL21(DE3) Rosetta, purified; not shown: His10, N-terminal, cleaved
B3: p63 oligomerization domain (OD), homo-tetramer (domain or fragment)
chain: DDELLYLPVRGRETYEMLLKIKESLELMQYLPQHTIETYRQQQQQQHQHLLQKQTSIQS
notes: p63 oligomerization domain (OD), wild type; also called p63 OD; p63 homo-OD; source: E. coli, purified; not shown: His10, N-terminal, cleaved

Assays:
[1] = molecular target: the molecule itself; experiment: crystal structure; complexes of OD hetero-tetramer and DARPin mixed 1:2, isolated by SEC, sitting drop at 20 °C
[2] = molecular target: B3; experiment: NMR titration; [15N,1H] BEST-TROSY spectra at 25 °C; equimolar mixture of unlabelled p63 OD and 15N-Lys-labelled p73 OD, DARPin added at one ratio (2.4:1); 20 mM K2HPO4 pH 7.8, 100 mM KCl, 0.5 mM EDTA; conditions: both partners purified

Row | Binder | binding result [1] | binding result [2]
1 | B1 | binds | binds
2 | B2 | binds | –
3 | B3 | binds | –
